Test: yeast display, Sf9 membrane polyspecificity reagent, FACS + sequencing; frameworks hold sequencing errors
Summary of the method: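 Polyreactivity labels are assigned by the sorting gate from which each nanobody was recovered. The gates were low and high (top ~1%), set on anti-HA fluorescence for expression and streptavidin fluorescence for reagent binding. Before sorting, galactose-induced (36–48 hours) yeast display cells were stained for 1 hour at 4 °C with 10% biotinylated, detergent-solubilized Sf9 membrane reagent.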

| Sequence | polyreactivity (PSR sort gate) |
| --- | --- |
| QVQLVESGGGLVQAGGSLRLSCAASGSIFFGYAMGWYRQAPGKERELVAGISSNGGTTYYADSVKGRFTISRDHANNTVNLQMNSQKPEDTAVYDCATQYYARGYLYDYWGQGTQVTVSS | low polyreactivity |
| QVQLVESGGGLVQAGGSLRLSCAASGNTFYGYAMGWYRQAPGKERDLVATITGSGGDTYYADSVKGRFTISRDNAKNTVYLKMNSLKPEDTAVYYCNAVEYYGGYPGTQYYYLAYNYWGQGTQVTVSS | low polyreactivity |
| QVQLVESGGGLVQAGGRLRLSCAASGYTFTHYAMGLYRQAPVKESELVASIRNSGSRTYYADSVKGRFTISPDNAKNTVYLQLNSLKPEDTAVYYCAAKTTTPYRYIYYYWGQGTQVTVSS | high polyreactivity |
| QVQLVESGGGLVQAGGSLRLSCAASGSTFGSYAMGWYRQAAGKERELVAGNSWSGGRTYYADSVKGRFTISRDNAKNTVYLQMNSLKPEDTAVYYCARDTGYYYARYNYWGQGTQVTVSS | low polyreactivity |
| QVQLVESGGGLVQAGGSLRLSCAASGSTFWGYTMGWYRQAPGKERELVAAITSGGSTNYADSVKGRFTISRDNAKNTVYLQMNSLKPEDTAVYYCNAVYPGRRRYRKWYIYDYWGQGTQVTVSS | high polyreactivity |
| QVQLQESGGGLVQAGGSQRLSCAASGYIFYFQYMGWYRKAPGKEREFVAAISDGANTNYADSVKGRFTISRDNAKNTEYLQLNSLKPEDTAVYYCAVYADENYYYIYWGQGTQVNVSS | low polyreactivity |
| QVQLVESGGGLVQAGGSLRLSCAASGFTFTQYAMGWYRPAPGKECELVAAISRSGGSTYYADSVKGRFTISRDNAKNTVYLQMTSLKPEDTPVYYCAADWRFRYDYWGQGTQVTVSS | high polyreactivity |
| QVQLVESGGGLVQAGGSLRLSCAASGFTFSRNAMGWYRQAPGKERELVAAISQSGGSTYYADSVKGRFTISRDNAKNTVYLQMNSRKPEDTAVYYCAATGWIIIKPTSSLKFNYWGQGTQVTVSS | high polyreactivity |
| HVHLVESGGGLVQAGGSLSLICAASGFIFRYYAMGWYRQAPGTEREVVAAITRGGSTYYADSVKGRFTISRDNAKNTVYLQMNSLKPVATAVYYCAARLYTQYYYWGQGTQVTVSS | high polyreactivity |
| QVQLVESGGGLVQAGGSLRLSCAPSGFTFRYYAMAWYRQAPGKEREFVAAISWSGGSTYYADSVKGRFTISRDNAKNTVYLQMNSLKPEDTAVYYCAAYYPLWGWGYDYWGQGTQVTVSS | high polyreactivity |
| QVQLVESGGGLVQAGGSLRLSCAASGRIFYRYAMGWYRQAPGKEREFVAAISGTGGSTYYADSVKGRFTISRDNAKNTVYLQMNSLKPEDTAVYYCAASVVSRPTYYAYYYWGQGTQVTVSS | high polyreactivity |
| QVQLVESGGGLVQAGGSLRLSCAASGRTFVSYVMGWYRQAPGKERELVAAITWRGGSTYYADSVKGRFTISRDNAKNTVYLQMNSLKPEDTAVYYCAAPSHGSTSDRYYKFYYWGQGTQVTVSS | high polyreactivity |
| QVQLVESGGGLVQAGGSLRLSCAASGSTFYGYGMGWYRQAPGKERELVAAITGYGDTTYYADSVKGRFTISRDYAKNTVDLQMNSLKPEDTAVYYCNARWHAEYDYWGQGTQVTVSS | low polyreactivity |
| QVQLVESGGGLVQAGGSLRLSCAASGFILYRYAMGWYRQAPGKERELVAAISSGGRTYYADSVKGRFTISRDNAKNTVYLQMNSLKPEDTAVYYCNAAYKNSPYDYWGQGTQVTVSS | high polyreactivity |
| QVQLLESGGGLVQAGGSLRLSCAASGSTFLANAMGWYRQAPGKERDLVAAISSSGGSTYYADSVKWRFTISRDNAKNTVYVQMNSLKPEDTAVYYCAAATASRYRLWGGYYYWGQGTQVTVSS | low polyreactivity |
| QVQLVESGGGLVQAGGSLRLSCAASGFIFYGNAMGWYRQAPGKVRELVAGISRSGGSTYYADSVKGRFTISRDNAKNTVSLQMNSLKPEDSAVYYCAASYWHRRYDYWGQGTQVTVSS | high polyreactivity |

| Sequence | polyreactivity (PSR sort gate) |
| --- | --- |
| QVQLVESGGGLVQAGGSLRLICAASGRTFFPYAMGWYRQAPGKEREFFAAISTRGGSTYYADSVKGRFTISRDNAKNTVYLQMNSLKPEDTAVYYCAARFHKKGYWVYRMDYWGQGTQVTVSS | high polyreactivity |
| QVQLVESGGGLVQAGGSLRLSCASSGSIFSYYAKGWYIQAPGKASQLVADISQSGGTTYYADSVKGRFTISRDNAKNTVYLLKNSLKPEETAVYYCAARAPSSFDTQYYYWGEGTQVTVSS | low polyreactivity |
| QVQLVESGGGLVQAGGSLRLSCAASGRIFVGYAMGWYRQAPGKERELVAAISARGGSTYYADSVMGRFTISRDNAKNTVYLQMNSLKPEDTADYYCAADEASSRGYYDSDYWGQCTQVTVSS | low polyreactivity |
| QVQLVESCGGLVQAGGSLRLSCAASGLTFLAYDMGWYRQAPGKEREFVAAITGGGSTHYADSVKGRFTISRDNAKTTVYLQMNSLKTEDTAVYYCNADVYVYSVTSHYPSYRLDYWGQGTQVTVSS | high polyreactivity |
| QVQLVESGGGLVQAGGSLRLSCAASGITFGANTMGWYRQAPGKERELVADITVTGDGTYYADSVKGRFTISRDNAKNTVYLQMNSLKPEDTAVYYCAADFWLVSFQWDFEYDYWGQGTQVTVSS | low polyreactivity |
| QVQLVESGGGLVQAGGSLRLSCTASGNTFALYAMGWYRQAPGKERELVARISRRGGSTYYADSVKGRFTISRDNAKNTVYLQMNSLKPEDTAVYYCAKTHSYYPWEVNYWGQGTQVTVSS | high polyreactivity |
| QVQLVESGGGLVQAGGSLRLSCAASGRTFPRYAMGWYRQAPGKERELVAAISRGGGTTYADSVKGRFTISRDNAKNTVYLQMNSLKPEDTAVYYCATRSPYSYPNLYYWGQGTQVTVSS | high polyreactivity |
| QGQLEESGGGLVQAGGSLRLSCAASGSIFTLYAMGWYRQAPGKERELVAAITRSGGSTYYADSVKGRFTISRDNAKNTVYLQMNSLKPEDTAVYYCAADKAPYSTEGDYWGQGTQVTVSS | high polyreactivity |
| QVQLVESGGGLVQAGGSLRLSCAASGSTFWYNAMGWYRQAPGKERELVAAISASGGSTYYADSVKGRFTISRDNAKNTVYLQMNSLKPEDTAVYYCAAGSFWGYSRYRTYYGFDYWGQGTQVTVSS | high polyreactivity |
| QVQLVESGGGLVQAGGSLRLSCAASGINFVGYAMGWDRQAPGKERELVAAISTSSRTYYADSVKGRFTISRDNAKNTVYIQMNSLKPEDTAVYYCNARGTRWYYRHDYWGQGTQVTVSS | high polyreactivity |
| QVQLVESGAGLVQAGGSLRLSCAPSGRIFYYAMGWYRQAPGKERELVAAISSGGSTNYADSVKGRFTISRDNSKNSVYLQMNSLKPEDTAVYYCAADRYWRWPRRDYWGQGTQVTVSS | low polyreactivity |
| QVQLVESGGGLVQAGGSLRLSCAASGSILYGNAMGWYRQAPGKERELVAAISWRGGRTYYADSVKGRFTISRDNAKNTVYLQMNSLKPEDTAVYYCAAQIGLVSGRDYWGQGTQVTVSS | high polyreactivity |
| QVQLVESGGGLVQAGGSLRLSCAASGFIFRYYTMGWYRQAPGKERELVARISSGGSTTYADSVKGRFTISRDNAKNTVYLQMNSLKPEDTAVYYCHARVKRWYFGNANHSPEYDYWGKGTQVTVSS | low polyreactivity |
| QVQLVESGGGLVQAGGSLRLSCAASGFTFSYYALGWYRQAPGKERELVAVISDRGGITYYADSVKGRFTISRDNAKNTVYLQMNSRKPEDTAVYYCAAQNPRYNYRYYYWGQGTQVTVSS | low polyreactivity |
| QVQLVESGGGLVQAGGSLRLRCAASGNTFFGYDMGWYRQAPGKERELVAAISGSGGGTYYADSVKGRFTISRDNAMNTVYLQMNCLKPEDTAVYYCAADSPQTEGYWGEGTQVTVSS | low polyreactivity |
